Measured values reported in US20150056162A1.
pKd: −log10 of the molar value.

How the values were obtained:
[1] = biological target: IL-13Rα1 ectodomain (amino acids 1-310), biotinylated (human) (UniProt P78552); experiment: SPR; equilibrium; settings: ligand
[2] = biological target: IL-13Rα1 ectodomain (amino acids 1-310), biotinylated (human) (UniProt P78552); experiment: SPR; kinetic; settings: ligand

Chain of IL-13Rα1 ectodomain (amino acids 1-310), biotinylated (human) (P78552 other isoform, or with tags, fused parts or gaps): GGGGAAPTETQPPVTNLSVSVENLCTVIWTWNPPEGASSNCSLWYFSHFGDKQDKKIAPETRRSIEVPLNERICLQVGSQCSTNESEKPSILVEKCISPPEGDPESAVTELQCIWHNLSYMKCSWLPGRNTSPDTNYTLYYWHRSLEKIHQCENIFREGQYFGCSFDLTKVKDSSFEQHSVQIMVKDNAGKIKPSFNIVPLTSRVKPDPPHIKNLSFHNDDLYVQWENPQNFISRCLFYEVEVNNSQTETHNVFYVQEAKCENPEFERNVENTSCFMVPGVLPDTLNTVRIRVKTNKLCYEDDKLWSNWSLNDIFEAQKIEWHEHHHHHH

Row | Substance | pKd [1] | pKd [2]
1 | IL-13 variant C11 (from UniProt P35225 34-146) | 5.80 | 
2 | wild-type human IL-13 (from UniProt P35225 34-146) |  | 8.36
3 | IL-13 variant C4 (from UniProt P35225 34-146) | 4.44 | 
